Results on one molecule are retold here after US8173771B2, “Humanin receptor or humanin-like polypeptide receptor” (Keio Univeristy, priority 2005, dated 2012).

The test system of experiment [1] is primary cortical neurons (PCNs). The experiment can be described thus: Aβ neurotoxicity in primary cortical neurons, WST-8 / Calcein / LDH. Type of experiment: cell-based, mouse. On the procedure: B) PCNs were incubated with 25 μM Aβ (upper) in the presence of 10 μg of recombinant soluble human gp130 (lower “+”) or BSA (lower “−”). Cell viability was determined by WST-8 assay (upper) or Calcein fluorescence assay (lower) at 72 hr after the onset of treatment with Aβ.
C) PCNs were incubated with 25 μM Aβ (1-43) in the presence of 1 μg of neutralizing anti-mouse gp130 antibody (RX435) or control IgG. Cell viability and cell mortality were determined by Calcein fluorescence (left panel) and LDH assays (right panel), respectively, at 72 hr after the onset of treatment with Aβ (1-43).
[…] At 72 hr after incubation, the cells were harvested for WST-8 assays or/and Calcein fluorescence assays to show cell viability.
B) The soluble IL-6 receptor-α (sIL-6R) or the soluble CNTF-R (100 ng/ml) were added to the cells as in the above A), followed by the stimulation with its ligand, IL-6 or CNTF (100 ng/ml), respectively to show the effects on the neuronal cell death due to Aβ. The right and left graphs show the cell viabilities determined by WST-8 assays and Calcein fluorescence assays, respectively.
C) The neutralizing antibodies (1 μg) for the mouse gp130, mouse LIFR, mouse IL-11R and rat CNTF-R were added as in the above A), and cell viability was determined by Calcein fluorescence assays after 72 hours.
WST-8 assay was performed at 72 hrs after the treatment.
The primary culture of mouse cortical neurons was prepared as described previously (Sudo et al., 2000). Briefly, primary cortical neurons, obtained from embryonic day 14 (E14) ICR mice were seeded in poly-L-lysine-coated 96 well plates (Sumitomo Bakelite) at 2.5 or 5.0×10^4 cells/well in Neuron Medium (Sumitomo Bakelite) (Hashimoto et al., 2003; Niikura et al., 2004). Purity of neurons by this method was >98%. After 3 days, the culture medium was replaced with DMEM with N2 supplement. On the fourth day in vitro, 25 μM of Aβ (1-42) was added in association with indicated concentrations of HN or cytokines in the presence or the absence of soluble cytokine receptors or neutralizing antibodies. At 72 hrs after the onset of treatment, cell viability was assessed by WST-8 assay and/or Calcein fluorescence assay and cell mortality was assessed by the Trypan blue exclusion assay and LDH assay (Hashimoto et al, 2000, 2001 a b, 2003).

The target in another experiment is T1, PCN cells (Mus musculus, UniProt O70394+O88507).
T1 construct: endogenous in cells; host or cells: mouse primary cortical neurons (PCN), E14 ICR mice
T1 sequence (O70394 25-623): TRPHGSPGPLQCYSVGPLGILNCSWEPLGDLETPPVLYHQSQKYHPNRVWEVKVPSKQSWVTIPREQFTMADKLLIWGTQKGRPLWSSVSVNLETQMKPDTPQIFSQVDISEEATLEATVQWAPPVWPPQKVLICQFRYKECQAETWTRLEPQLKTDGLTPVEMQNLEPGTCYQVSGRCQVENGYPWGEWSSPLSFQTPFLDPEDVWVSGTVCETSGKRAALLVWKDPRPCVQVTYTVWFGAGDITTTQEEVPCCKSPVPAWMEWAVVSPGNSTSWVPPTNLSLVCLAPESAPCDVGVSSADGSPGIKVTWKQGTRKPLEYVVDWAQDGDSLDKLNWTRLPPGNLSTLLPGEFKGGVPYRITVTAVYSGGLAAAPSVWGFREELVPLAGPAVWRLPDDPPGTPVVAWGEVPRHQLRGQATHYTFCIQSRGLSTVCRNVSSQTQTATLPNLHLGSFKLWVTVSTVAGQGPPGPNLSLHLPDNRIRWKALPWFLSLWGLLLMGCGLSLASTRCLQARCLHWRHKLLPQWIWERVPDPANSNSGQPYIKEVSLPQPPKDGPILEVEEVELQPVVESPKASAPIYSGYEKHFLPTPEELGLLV
T1 sequence (O88507 23-342 limits assumed): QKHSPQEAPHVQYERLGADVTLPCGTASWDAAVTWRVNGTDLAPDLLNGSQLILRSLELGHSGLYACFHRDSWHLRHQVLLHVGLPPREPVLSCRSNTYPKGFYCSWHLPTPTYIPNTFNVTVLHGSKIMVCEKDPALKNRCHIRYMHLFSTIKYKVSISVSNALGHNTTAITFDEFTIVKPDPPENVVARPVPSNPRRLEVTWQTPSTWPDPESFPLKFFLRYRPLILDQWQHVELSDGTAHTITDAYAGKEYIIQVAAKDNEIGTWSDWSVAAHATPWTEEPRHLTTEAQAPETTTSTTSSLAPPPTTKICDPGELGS
T1 sequence (Q00560 23-917 partner): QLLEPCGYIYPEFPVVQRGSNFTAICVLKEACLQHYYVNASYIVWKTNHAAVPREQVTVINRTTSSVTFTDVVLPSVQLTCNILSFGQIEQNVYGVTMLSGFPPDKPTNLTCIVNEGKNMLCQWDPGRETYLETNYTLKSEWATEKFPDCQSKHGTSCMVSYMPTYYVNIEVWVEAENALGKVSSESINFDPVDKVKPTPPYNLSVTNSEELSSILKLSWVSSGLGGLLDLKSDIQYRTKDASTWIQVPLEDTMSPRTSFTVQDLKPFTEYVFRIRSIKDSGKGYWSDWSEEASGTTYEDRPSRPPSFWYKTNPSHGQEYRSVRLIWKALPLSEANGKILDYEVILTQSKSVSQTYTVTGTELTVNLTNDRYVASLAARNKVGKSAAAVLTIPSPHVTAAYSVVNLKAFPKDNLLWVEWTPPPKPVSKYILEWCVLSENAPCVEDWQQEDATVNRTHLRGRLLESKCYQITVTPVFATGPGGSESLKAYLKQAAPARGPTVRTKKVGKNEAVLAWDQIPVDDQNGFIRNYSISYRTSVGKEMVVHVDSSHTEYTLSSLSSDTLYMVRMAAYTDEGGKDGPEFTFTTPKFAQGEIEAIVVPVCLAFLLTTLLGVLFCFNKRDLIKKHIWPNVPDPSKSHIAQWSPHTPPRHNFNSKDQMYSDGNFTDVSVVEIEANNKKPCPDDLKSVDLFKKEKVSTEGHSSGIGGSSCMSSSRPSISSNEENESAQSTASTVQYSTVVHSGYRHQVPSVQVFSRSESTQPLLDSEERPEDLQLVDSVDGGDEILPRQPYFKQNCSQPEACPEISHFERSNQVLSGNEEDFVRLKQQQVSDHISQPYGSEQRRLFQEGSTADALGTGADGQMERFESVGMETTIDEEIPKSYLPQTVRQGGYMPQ
The experiment in a line: Immunofluorescence-based binding assay (2) on PCN, competition with unlabeled cytokines. The note with it: similar range as IL-27; 10 nM biotin-HNG. On the procedure:
After 6 hrs incubation, they were fixed with 4% paraformaldehyde in PBS for 30 min. After washing with PBS, cells were stained with FITC-conjugated avidin (Molecularprobe, Eugene, Oreg., USA). Immunofluorescence intensity was measured (excitation=485 nm, emission=535 nm) with a spectrofluorometer (Wallac1420 ARVOsx Multi Label Counter). Immunohistochemical analysis was done with a laser-scanning, confocal microscope LSM (Carl Zeiss, Germany).

B1: IL-6: interleukin-6, recombinant cytokine (protein, UniProt P20607 25-211, looked up)
Interleukin-6: FPTSQVRRGDFTEDTTHNRPVYTTSQVGGLITYVLREILEMRKELCNGNSDCMNSDDALSENNLKLPEIQRNDGCFQTGYNQEICLLKICSGLLEFRFYLEFVKNNLQDNKKDKARVIQSNTETLVHIFKQEIKDSYKIVLPTPTSNALLMEKLESQKEWLRTKTIQLILKALEEFLKVTMRSTRQT
Regarding B1, in experiment [1] (cytokine 100 ng/ml with its soluble receptor (sIL-6R or soluble CNTF receptor) 100 ng/ml), the “mimicry of HN in neuroprotection against neuronal cell death by Aβ” value is recorded as “completely mimicked HN”. The “inhibition of neurotoxicity by Aβ” value in experiment [1] (cytokine alone, physiological levels (up to 100 ng/ml), 25 μM Aβ) is “did not inhibit”. In addition, the “inhibition of the binding of HN to PCN” value with PCN cells is “did not show such effect”.
